The source of these data is paper PMC4575112, “Serine 363 of a Hydrophobic Region of Archaeal Ribulose 1,5-Bisphosphate Carboxylase/Oxygenase from Archaeoglobus fulgidus and Thermococcus kodakaraensis Affects CO2/O2 Substrate Specificity and Oxygen Sensitivity” (PLoS ONE, 2015).

Series [1] addresses T1, A. fulgidus RbcL2 (Archaeoglobus fulgidus, UniProt O28635, M295D).
T1 construct: gene rbcL; recombinant in E. coli BL-21(DE3) from pET11a, untagged, purified anaerobically to homogeneity; homodimer
Nature of the series: radiometric […]-bicarbonate carboxylase assay. In kind it is biochemical. The settings on record: 83°C, pH 8.3, Mg2+, strictly anaerobic; value previously reported by same laboratory (ref 17), run in parallel; read-out: KRuBP ^a /; cited from earlier work.

Series [2] deals with T2, A. fulgidus RbcL2 (Archaeoglobus fulgidus, UniProt O28635).
T2 construct: gene rbcL; recombinant in E. coli BL-21(DE3) from pET11a, untagged, purified anaerobically to homogeneity; homodimer
T2 sequence (O28635 1-441): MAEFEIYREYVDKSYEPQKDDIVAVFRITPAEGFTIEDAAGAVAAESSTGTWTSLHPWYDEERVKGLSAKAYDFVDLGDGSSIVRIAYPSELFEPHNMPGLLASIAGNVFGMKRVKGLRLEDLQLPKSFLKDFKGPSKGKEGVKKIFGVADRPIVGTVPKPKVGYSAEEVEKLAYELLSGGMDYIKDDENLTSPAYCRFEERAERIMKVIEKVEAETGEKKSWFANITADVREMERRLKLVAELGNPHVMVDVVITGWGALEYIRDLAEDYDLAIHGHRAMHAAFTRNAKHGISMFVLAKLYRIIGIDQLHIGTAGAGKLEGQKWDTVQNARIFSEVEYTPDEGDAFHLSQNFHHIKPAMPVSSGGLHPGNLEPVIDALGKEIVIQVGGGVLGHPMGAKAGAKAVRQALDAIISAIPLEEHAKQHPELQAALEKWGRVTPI
As to the kind of experiment: radiometric […]-bicarbonate carboxylase assay. The class given is biochemical. The settings on record: 83°C, pH 8.3, Mg2+, strictly anaerobic; value previously reported by same laboratory (ref 17), run in parallel; read-out: KRuBP ^a /; cited from earlier work.

Substrate in series [3]: O=C(COP(=O)(O)O)[C@H](O)[C@H](O)COP(=O)(O)O
Nature of the series: purified protein. In kind it is biochemical, Thermococcus kodakarensis. The settings on record: 83°C, pH 8.3, Mg2+, strictly anaerobic.

Substrate in series [4]: O=C(COP(=O)(O)O)[C@H](O)[C@H](O)COP(=O)(O)O
Nature of the series: purified protein. The class given is biochemical, Archaeoglobus fulgidus. The settings on record: 83°C, pH 8.3, Mg2+, strictly anaerobic.

T1 sequence (O28635 whole entry M295D): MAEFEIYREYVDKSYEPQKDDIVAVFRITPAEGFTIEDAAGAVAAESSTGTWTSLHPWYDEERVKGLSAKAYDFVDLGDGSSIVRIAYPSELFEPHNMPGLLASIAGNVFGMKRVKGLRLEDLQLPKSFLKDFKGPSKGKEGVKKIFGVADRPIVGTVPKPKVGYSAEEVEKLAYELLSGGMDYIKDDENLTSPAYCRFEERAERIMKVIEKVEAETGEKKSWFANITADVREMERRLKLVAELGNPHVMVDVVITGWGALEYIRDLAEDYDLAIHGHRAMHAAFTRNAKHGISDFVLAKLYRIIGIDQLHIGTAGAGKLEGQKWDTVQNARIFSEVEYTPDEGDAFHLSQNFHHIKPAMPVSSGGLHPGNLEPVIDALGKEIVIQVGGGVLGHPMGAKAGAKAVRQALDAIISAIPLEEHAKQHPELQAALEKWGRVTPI

With `O=C(COP(=O)(O)O)[C@H](O)[C@H](O)COP(=O)(O)O` [RuBP], the Km was 21 ± 3 µM at A. fulgidus RbcL2 [1] and 20 ± 5 µM on A. fulgidus RbcL2 [2].

B1: T. kodakaraensis RbcL (Thermococcus kodakarensis KOD1) (protein)
chain: MVEKFDTIYDYYVDKGYEPSKKRDIIAVFRVTPAEGYTIEQAAGAVAAESSTGTWTTLYPWYEQERWADLSAKAYDFHDMGDGSWIVRIAYPFHAFEEANLPGLLASIAGNIFGMKRVKGLRLEDLYFPEKLIREFDGPAFGIEGVRKMLEIKDRPIYGVVPKPKVGYSPEEFEKLAYDLLSNGADYMKDDENLTSPWYNRFEERAEIMAKIIDKVENETGEKKTWFANITADLLEMEQRLEVLADLGLKHAMVDVVITGWGALRYIRDLAADYGLAIHGHRAMHAAFTRNPYHGISMFVLAKLYRLIGIDQLHVGTAGAGKLEGGKWDVIQNARILRESHYKPDENDVFHLEQKFYSIKAAFPTSSGGLHPGNIQPVIEALGTDIVLQLGGGTLGHPDGPAAGARAVRQAIDAIMQGIPLDEYAKTHKELARALEKWGHVTPV
notes: recombinant in E. coli BL-21(DE3) from pET11a, untagged, purified anaerobically to homogeneity; reported decamer
By kcat is commonly meant the number of substrate molecules converted per active site and unit of time at saturation. As for B1, in the series “purified protein [3]”, the Km worked out at 14 ± 2 µM and the kcat was 16.6 s⁻¹.

B2: A. fulgidus RbcL2 (Archaeoglobus fulgidus DSM 4304; S363I) (protein)
chain: MAEFEIYREYVDKSYEPQKDDIVAVFRITPAEGFTIEDAAGAVAAESSTGTWTSLHPWYDEERVKGLSAKAYDFVDLGDGSSIVRIAYPSELFEPHNMPGLLASIAGNVFGMKRVKGLRLEDLQLPKSFLKDFKGPSKGKEGVKKIFGVADRPIVGTVPKPKVGYSAEEVEKLAYELLSGGMDYIKDDENLTSPAYCRFEERAERIMKVIEKVEAETGEKKSWFANITADVREMERRLKLVAELGNPHVMVDVVITGWGALEYIRDLAEDYDLAIHGHRAMHAAFTRNAKHGISMFVLAKLYRIIGIDQLHIGTAGAGKLEGQKWDTVQNARIFSEVEYTPDEGDAFHLSQNFHHIKPAMPVISGGLHPGNLEPVIDALGKEIVIQVGGGVLGHPMGAKAGAKAVRQALDAIISAIPLEEHAKQHPELQAALEKWGRVTPI
notes: recombinant in E. coli BL-21(DE3) from pET11a, untagged, purified anaerobically to homogeneity; homodimer
With B2, in “purified protein [4]”, the Km stood at 570 ± 94 µM and the kcat is 9.5 s⁻¹.

B3: A. fulgidus RbcL2 (Archaeoglobus fulgidus DSM 4304; M295D/S363V) (protein)
chain: MAEFEIYREYVDKSYEPQKDDIVAVFRITPAEGFTIEDAAGAVAAESSTGTWTSLHPWYDEERVKGLSAKAYDFVDLGDGSSIVRIAYPSELFEPHNMPGLLASIAGNVFGMKRVKGLRLEDLQLPKSFLKDFKGPSKGKEGVKKIFGVADRPIVGTVPKPKVGYSAEEVEKLAYELLSGGMDYIKDDENLTSPAYCRFEERAERIMKVIEKVEAETGEKKSWFANITADVREMERRLKLVAELGNPHVMVDVVITGWGALEYIRDLAEDYDLAIHGHRAMHAAFTRNAKHGISDFVLAKLYRIIGIDQLHIGTAGAGKLEGQKWDTVQNARIFSEVEYTPDEGDAFHLSQNFHHIKPAMPVVSGGLHPGNLEPVIDALGKEIVIQVGGGVLGHPMGAKAGAKAVRQALDAIISAIPLEEHAKQHPELQAALEKWGRVTPI
notes: as for B2
B3: in “purified protein [4]” (kcat determined at 4–6 x KRuBP), the Km is 1381 ± 88 µM and the kcat is 4.3 s⁻¹.

B4: A. fulgidus RbcL2 (Archaeoglobus fulgidus DSM 4304; M295D/S363I) (protein)
chain: MAEFEIYREYVDKSYEPQKDDIVAVFRITPAEGFTIEDAAGAVAAESSTGTWTSLHPWYDEERVKGLSAKAYDFVDLGDGSSIVRIAYPSELFEPHNMPGLLASIAGNVFGMKRVKGLRLEDLQLPKSFLKDFKGPSKGKEGVKKIFGVADRPIVGTVPKPKVGYSAEEVEKLAYELLSGGMDYIKDDENLTSPAYCRFEERAERIMKVIEKVEAETGEKKSWFANITADVREMERRLKLVAELGNPHVMVDVVITGWGALEYIRDLAEDYDLAIHGHRAMHAAFTRNAKHGISDFVLAKLYRIIGIDQLHIGTAGAGKLEGQKWDTVQNARIFSEVEYTPDEGDAFHLSQNFHHIKPAMPVISGGLHPGNLEPVIDALGKEIVIQVGGGVLGHPMGAKAGAKAVRQALDAIISAIPLEEHAKQHPELQAALEKWGRVTPI
notes: as for B2
Turning to B4, in the series “purified protein [4]” (kcat determined at 4–6 x KRuBP), the Km is 1646 ± 310 µM and the kcat worked out at 0.7 s⁻¹.

B5: A. fulgidus RbcL2 (Archaeoglobus fulgidus DSM 4304; S363V) (protein)
chain: MAEFEIYREYVDKSYEPQKDDIVAVFRITPAEGFTIEDAAGAVAAESSTGTWTSLHPWYDEERVKGLSAKAYDFVDLGDGSSIVRIAYPSELFEPHNMPGLLASIAGNVFGMKRVKGLRLEDLQLPKSFLKDFKGPSKGKEGVKKIFGVADRPIVGTVPKPKVGYSAEEVEKLAYELLSGGMDYIKDDENLTSPAYCRFEERAERIMKVIEKVEAETGEKKSWFANITADVREMERRLKLVAELGNPHVMVDVVITGWGALEYIRDLAEDYDLAIHGHRAMHAAFTRNAKHGISMFVLAKLYRIIGIDQLHIGTAGAGKLEGQKWDTVQNARIFSEVEYTPDEGDAFHLSQNFHHIKPAMPVVSGGLHPGNLEPVIDALGKEIVIQVGGGVLGHPMGAKAGAKAVRQALDAIISAIPLEEHAKQHPELQAALEKWGRVTPI
notes: as for B2
With B5, in the series “purified protein [4]” (kcat determined at 4–6 x KRuBP), the Km came out at 118 ± 6 µM and the kcat came to 12.4 s⁻¹.
